Test results from patent US20210130436A1.
Several values for one entry are separate records, joined by “and”; a condition that tells them apart may be missing. Equal values may be shown once.

target: CD28 on Jurkat/IL2 reporter cells (human) (UniProt P10747); assay: cell-based or functional assay

Wild Type PD-L2 IgV-Fc, sequence (Q9BQ51 20-121): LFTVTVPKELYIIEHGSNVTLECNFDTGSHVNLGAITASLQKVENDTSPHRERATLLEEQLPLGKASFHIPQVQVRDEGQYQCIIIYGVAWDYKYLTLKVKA

Row | Fold Increase over WT CD80-IgV-Fc (RLU, Jurkat/IL2 + K562/OKT3/PD-L1 reporter assay, 50 nM) [fold] | Relative Luciferase Units (RLU), Jurkat/IL2 + K562/OKT3/PD-L1 reporter assay, CD80-Fc Conc 50 nM [RLU] | Substance
1 | 5 | 1020 | CD80 E35D/T41S/M47V/A71G/K89N IgV-Fc (inert) (Fc fusion)
2 | 2.9 | 594 | CD80 E35D/T41S/M47V/L97Q IgV-Fc (inert) (Fc fusion)
3 | 8.4 | 1720 | CD80 E35D/Y53H/A71G/D90G/L97R IgV-Fc (inert) (Fc fusion)
4 | 7.3 | 1510 | CD80 H18Y/A26E/E35D/M47L/L85Q/D90G IgV-Fc (inert) (Fc fusion)
5 | 7.3 | 1500 | CD80 I30V/E35D/M47V/A71G/A91V IgV-Fc (inert) (Fc fusion)
6 | 4.7 | 978 | CD80 Q27H/E35D/D46V/M47L/A71G IgV-Fc (inert) (Fc fusion)
7 | 6.4 | 1310 | CD80 Q27H/E35D/M47I/L85Q/D90G IgV-Fc (inert) (Fc fusion)
8 | 7.5 | 1540 | CD80 V22D/E35D/M47L/L70M/L97Q IgV-Fc (inert) (Fc fusion)
9 | 5.5 | 1140 | CD80 V22D/E35D/M47L/L85Q IgV-Fc (inert) (Fc fusion)
10 | 5.5 | 1120 | CD80 V22L/Q27H/E35D/M47I/A71G IgV-Fc (inert) (Fc fusion)

target: PD-1 (PDCD1) (Homo sapiens (Human)) (UniProt Q15116); assay: cell-based or functional assay
Sequence (Q15116 21-288): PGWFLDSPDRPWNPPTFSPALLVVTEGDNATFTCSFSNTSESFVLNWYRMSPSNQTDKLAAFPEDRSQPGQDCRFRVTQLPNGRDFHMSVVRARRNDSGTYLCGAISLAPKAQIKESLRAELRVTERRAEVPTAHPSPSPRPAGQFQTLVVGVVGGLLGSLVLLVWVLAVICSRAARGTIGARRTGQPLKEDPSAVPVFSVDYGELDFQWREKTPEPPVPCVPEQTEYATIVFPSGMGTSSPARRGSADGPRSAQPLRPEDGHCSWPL

Row | IFN gamma levels pg/mL (MLR) | Substance
11 | 1500 pg/mL | PD-L2 E44D IgV-Fc (from UniProt Q9BQ51 20-121) (Fc fusion)
12 | 1280 pg/mL | PD-L2 E44D/S67L/Q72H/Q82R/V89D IgV-Fc (from UniProt Q9BQ51 20-121) (Fc fusion)
13 | 1510 pg/mL | PD-L2 E59G/Q82R IgV-Fc (from UniProt Q9BQ51 20-121) (Fc fusion)
14 | 1850 pg/mL | PD-L2 H15Q/C23S/I86T IgV-Fc (from UniProt Q9BQ51 20-121) (Fc fusion)
15 | 1390 pg/mL | PD-L2 H15Q/E44D/R76G/I85F IgV-Fc (from UniProt Q9BQ51 20-121) (Fc fusion)
16 | 1510 pg/mL | PD-L2 H15Q/K65R IgV-Fc (from UniProt Q9BQ51 20-121) (Fc fusion)
17 | 1500 pg/mL | PD-L2 H15Q/L33H/S67L/R76G/Q82R/V89D IgV-Fc (from UniProt Q9BQ51 20-121) (Fc fusion)
18 | 1290 pg/mL | PD-L2 H15Q/L33P/T47A/S67L/P71S/V89D IgV-Fc (from UniProt Q9BQ51 20-121) (Fc fusion)
19 | 1290 pg/mL | PD-L2 H15Q/N32D/S67L/V89D IgV-Fc (from UniProt Q9BQ51 20-121) (Fc fusion)
20 | 1270 pg/mL | PD-L2 H15Q/Q72H/V89D IgV-Fc (from UniProt Q9BQ51 20-121) (Fc fusion)
21 | 1730 pg/mL | PD-L2 H15Q/R76G/I85F IgV-Fc (first entry) (from UniProt Q9BQ51 20-121) (Fc fusion)
22 | 1420 pg/mL | PD-L2 H15Q/S39I/I86T IgV-Fc (from UniProt Q9BQ51 20-121) (Fc fusion)
23 | 1430 pg/mL | PD-L2 H15Q/S67L/R76G IgV-Fc (from UniProt Q9BQ51 20-121) (Fc fusion)
24 | 1320 pg/mL | PD-L2 H15Q/S67L/R76G/I85F IgV-Fc (from UniProt Q9BQ51 20-121) (Fc fusion)
25 | 1340 pg/mL | PD-L2 H15Q/T47A/K65R/S67L/Q82R/V89D IgV-Fc (from UniProt Q9BQ51 20-121) (Fc fusion)
26 | 1460 pg/mL | PD-L2 H15Q/T47A/Q72H/R76G IgV-Fc (from UniProt Q9BQ51 20-121) (Fc fusion)
27 | 1320 pg/mL | PD-L2 H15Q/T47A/Q82R IgV-Fc (from UniProt Q9BQ51 20-121) (Fc fusion)

Row | IFN gamma levels pg/mL (MLR) | Substance
28 | 1500 pg/mL | PD-L2 H15Q/V89D IgV-Fc (from UniProt Q9BQ51 20-121) (Fc fusion)
29 | 1530 pg/mL | PD-L2 I12V/I13V/H15Q/T47A/Q82R/V89D IgV-Fc (from UniProt Q9BQ51 20-121) (Fc fusion)
30 | 1380 pg/mL | PD-L2 I13V/H15Q/E44D/V89D IgV-Fc (from UniProt Q9BQ51 20-121) (Fc fusion)
31 | 1270 pg/mL | PD-L2 I13V/H15Q/E44V/T47A/Q82R/V89D IgV-Fc (from UniProt Q9BQ51 20-121) (Fc fusion)
32 | 1360 pg/mL | PD-L2 I13V/H15Q/I36V/T47A/S67L/V89D IgV-Fc (from UniProt Q9BQ51 20-121) (Fc fusion)
33 | 1470 pg/mL | PD-L2 I13V/H15Q/L33F/T47A/Q82R/V89D IgV-Fc (from UniProt Q9BQ51 20-121) (Fc fusion)
34 | 1430 pg/mL | PD-L2 I13V/H15Q/Q82R IgV-Fc (from UniProt Q9BQ51 20-121) (Fc fusion)
35 | 1530 pg/mL | PD-L2 I13V/H15Q/R76G/I85F IgV-Fc (from UniProt Q9BQ51 20-121) (Fc fusion)
36 | 1470 pg/mL | PD-L2 I13V/H15Q/T47A/Q72H/R76G IgV-Fc (from UniProt Q9BQ51 20-121) (Fc fusion)
37 | 1450 pg/mL and 1740 pg/mL | PD-L2 I13V/H15Q/T47A/Q82R/V89D IgV-Fc (from UniProt Q9BQ51 20-121) (Fc fusion)
38 | 1950 pg/mL | PD-L2 I13V/Q72H/R76G/I86T IgV-Fc (from UniProt Q9BQ51 20-121) (Fc fusion)
39 | 1370 pg/mL | PD-L2 I13V/S67L/Q82R/V89D IgV-Fc (from UniProt Q9BQ51 20-121) (Fc fusion)
40 | 1980 pg/mL | PD-L2 N24D IgV-Fc (from UniProt Q9BQ51 20-121) (Fc fusion)
41 | 1310 pg/mL | PD-L2 S39I/V89D IgV-Fc (from UniProt Q9BQ51 20-121) (Fc fusion)
42 | 1280 pg/mL | PD-L2 S67L/I85F IgV-Fc (from UniProt Q9BQ51 20-121) (Fc fusion)
43 | 1380 pg/mL | Wild Type PD-L2 IgV-Fc (from UniProt Q9BQ51 20-121) (Fc fusion)

target: PD-L1 on K562/OKT3/PD-L1 artificial antigen presenting cells (UniProt Q9NZQ7); assay: cell-based or functional assay
Sequence (Q9NZQ7 19-290): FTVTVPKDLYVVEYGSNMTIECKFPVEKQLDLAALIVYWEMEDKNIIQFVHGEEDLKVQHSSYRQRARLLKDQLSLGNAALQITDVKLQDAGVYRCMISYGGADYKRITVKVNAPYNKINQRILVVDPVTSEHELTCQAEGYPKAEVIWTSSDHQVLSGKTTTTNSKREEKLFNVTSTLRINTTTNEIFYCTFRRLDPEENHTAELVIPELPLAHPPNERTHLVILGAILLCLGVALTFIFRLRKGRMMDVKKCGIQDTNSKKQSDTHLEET

Row | Fold Increase over WT CD80-IgV-Fc (RLU, Jurkat/IL2 + K562/OKT3/PD-L1 reporter assay, 50 nM) [fold] | Relative Luciferase Units (RLU), Jurkat/IL2 + K562/OKT3/PD-L1 reporter assay, CD80-Fc Conc 50 nM [RLU] | Substance
44 | 5 | 1020 | CD80 E35D/T41S/M47V/A71G/K89N IgV-Fc (inert) (Fc fusion)
45 | 2.9 | 594 | CD80 E35D/T41S/M47V/L97Q IgV-Fc (inert) (Fc fusion)
46 | 8.4 | 1720 | CD80 E35D/Y53H/A71G/D90G/L97R IgV-Fc (inert) (Fc fusion)
47 | 7.3 | 1510 | CD80 H18Y/A26E/E35D/M47L/L85Q/D90G IgV-Fc (inert) (Fc fusion)
48 | 7.3 | 1500 | CD80 I30V/E35D/M47V/A71G/A91V IgV-Fc (inert) (Fc fusion)
49 | 4.7 | 978 | CD80 Q27H/E35D/D46V/M47L/A71G IgV-Fc (inert) (Fc fusion)
50 | 6.4 | 1310 | CD80 Q27H/E35D/M47I/L85Q/D90G IgV-Fc (inert) (Fc fusion)
51 | 7.5 | 1540 | CD80 V22D/E35D/M47L/L70M/L97Q IgV-Fc (inert) (Fc fusion)
52 | 5.5 | 1140 | CD80 V22D/E35D/M47L/L85Q IgV-Fc (inert) (Fc fusion)
53 | 5.5 | 1120 | CD80 V22L/Q27H/E35D/M47I/A71G IgV-Fc (inert) (Fc fusion)

target: human PD-L1, full length, expressed on transfected HEK293 cells (human) (UniProt Q9NZQ7); assay: flow cytometry, HEK293 cells transfected with human PD-L1
Sequence (Q9NZQ7 19-290): as above

Row | MFI at 22.2 nM [MFI] | Substance
54 | 1760 | variant CD80 IgV-Fc E35D/T57A/A71D/L85Q (from UniProt P33681 35-141) (Fc fusion)
55 | 1080 | variant CD80 IgV-Fc H18Y/A71D/L72P/E88V (from UniProt P33681 35-141) (Fc fusion)
56 | 1690 | variant CD80 IgV-Fc L70Q/A71D (from UniProt P33681 35-141) (Fc fusion)
57 | 3400 | variant CD80 IgV-Fc M47V/I69F/A71D/V83I (from UniProt P33681 35-141) (Fc fusion)
58 | 1450 | variant CD80 IgV-Fc Q27H/E35G/A71D/L72P/T79I (from UniProt P33681 35-141) (Fc fusion)
59 | 1050 | variant CD80 IgV-Fc Q27L/E35D/M47I/T57I/L70Q/E88D (from UniProt P33681 35-141) (Fc fusion)
60 | 1870 | variant CD80 IgV-Fc T13R/M42V/M47I/A71D (from UniProt P33681 35-141) (Fc fusion)
61 | 3550 | variant CD80 IgV-Fc V20I/A71D (from UniProt P33681 35-141) (Fc fusion)
62 | 1400 | variant CD80 IgV-Fc V22L/E35G/A71D/L72P (from UniProt P33681 35-141) (Fc fusion)

target: CD28, endogenously expressed on Jurkat/IL2 reporter cells (human) (UniProt P10747); assay: flow cytometry, Jurkat/IL2 reporter cells (endogenous CD28)

Row | MFI at 33.3 nM [MFI] | Substance
63 | 15 | variant CD80 IgV-Fc E24D/E35D/M47L/V68M/E95V/L97Q (from UniProt P33681 35-141) (Fc fusion)
64 | 14 | variant CD80 IgV-Fc E35D/D46E/M47L/V68M/T79M/L85M/L97Q (from UniProt P33681 35-141) (Fc fusion)
65 | 14 | variant CD80 IgV-Fc E35D/M47L/V68M/E95V/L97Q (from UniProt P33681 35-141) (Fc fusion)
